Measurements: publication doi:10.1101/2022.07.28.501832

Biological target: human RXFP4 on stably transfected CHO-K1 cells (human) (UniProt Q8TDU9)
Assay: competitive binding of a europium-labelled ligand on cells

UniProt Q8TDU9, sequence (Q8TDU9 whole entry): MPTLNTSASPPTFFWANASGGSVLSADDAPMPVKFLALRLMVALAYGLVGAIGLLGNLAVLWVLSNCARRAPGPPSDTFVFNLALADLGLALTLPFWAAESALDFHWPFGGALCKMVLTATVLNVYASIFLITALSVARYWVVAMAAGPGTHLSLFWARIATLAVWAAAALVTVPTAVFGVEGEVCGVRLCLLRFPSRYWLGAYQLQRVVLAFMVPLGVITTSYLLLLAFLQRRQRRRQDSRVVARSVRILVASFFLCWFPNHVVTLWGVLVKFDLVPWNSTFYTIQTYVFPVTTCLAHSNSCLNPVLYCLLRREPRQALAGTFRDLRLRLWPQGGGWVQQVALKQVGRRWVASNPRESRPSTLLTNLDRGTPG

Substance: recombinant two-chain human insulin-like peptide 5 (INSL5) (ligand)
- pKi: 8.19
